Laboratory results: patent US20250074980A1 (BRIGHAM AND WOMEN S HOSPITAL, published 2025)

T1: CEACAM8 on transfected HeLa cells (human, UniProt P31997 35-320)
T1 construct: whole, on cells; also called HeLa-CEACAM8; HeLa C8
T1 sequence (looked up): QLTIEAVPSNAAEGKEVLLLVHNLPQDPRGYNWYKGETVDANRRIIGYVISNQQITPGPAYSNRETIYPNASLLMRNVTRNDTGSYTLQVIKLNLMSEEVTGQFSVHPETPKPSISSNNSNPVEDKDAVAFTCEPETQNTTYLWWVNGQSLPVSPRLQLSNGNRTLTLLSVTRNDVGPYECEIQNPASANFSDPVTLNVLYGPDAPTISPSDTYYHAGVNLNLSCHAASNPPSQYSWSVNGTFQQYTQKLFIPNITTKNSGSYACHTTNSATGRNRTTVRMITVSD

T2: His-tagged CEACAM1 (human, UniProt P13688 35-428)
T2 construct: 45 kDa SPR analyte; also called CEACAM1-HIS; CEACAM1 analyte
T2 sequence: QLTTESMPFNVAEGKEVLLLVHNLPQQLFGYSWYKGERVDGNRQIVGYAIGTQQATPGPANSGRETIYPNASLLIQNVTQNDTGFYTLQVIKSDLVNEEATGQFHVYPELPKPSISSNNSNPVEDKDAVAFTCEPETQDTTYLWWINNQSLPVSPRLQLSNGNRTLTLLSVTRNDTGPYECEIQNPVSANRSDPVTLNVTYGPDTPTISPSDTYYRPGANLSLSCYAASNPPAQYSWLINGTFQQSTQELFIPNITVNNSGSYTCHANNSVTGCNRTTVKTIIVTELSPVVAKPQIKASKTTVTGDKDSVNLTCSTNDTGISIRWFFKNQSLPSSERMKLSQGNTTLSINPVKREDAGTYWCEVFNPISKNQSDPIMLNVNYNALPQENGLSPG

B1: CP08H03/Vκ8 S29A (antibody, IgG4, V domains shown)
VH: EVQLLESGGGLVQPGGSLRLSCAASGFIFSSHGMSWVRQAPGKGLEWVATISSGGTYTYYPDSVKGRFTISRDNSKNTLYLQMNSLKAEDTAMYYCARHDFDYFPYWFAHWGQGTLVTVSS
VL: EIVLTQSPATLSLSPGERATLSCRANSAVSYMYWYQQKPGQAPRPWIYLTSNRATGVPARFSGSGSGTDYTLTISSLEPEDFAVYYCQQWSSNPPTFGQGTKLEIK
notes: IgG4 (S241P), kappa; also called CP08_H03/Parent VL; CP08_H03/Parental
B2: chimeric antibody VH0/Vκ0 (antibody, IgG4, V domains shown)
VH: EVQLVESGGDLVKPGGSLKLACAASGFIFSSHGMSWVRQTPDKRLEWVATISSGGTYTYYPDSVKGRFTISRDNDKNTLYLQMNSLKSEDTAMYYCARHDFDYDAAWFAYWGQGTLVTVSS
VL: QIVLTQSPALMSASPGVKVTMTCSANSSVSYMYWYRQKPRSSPKPWIYLTSNLASGVPARFSGSGSGTSYSLTISSMEAEDAATYYCQQWSSNPPTFGSGTKLEIK
notes: IgG4 (S241P), kappa; also called VH0/Vκ0 (control); Chimeric VH0/Vκ0

Columns and labels:
[1] = target: T1, CEACAM8 on transfected HeLa cells; test: flow cytometry titration, HeLa-CEACAM8 transfectants, anti-human IgG4 FITC
Description: FIGS. 31A and 31B show flow cytometry analyses of stable HeLa CEACAM1 (HeLa C1) transfectant, stable HeLa CEACAM3 transfectant (HeLa C3), stable HeLa CEACAM5 transfectant (HeLa C5), stable HeLa CEACAM6 transfectant (HeLa C6), and stable HeLa CEACAM8 transfectant (HeLa C8). FIG. 31A: 5×10\hat{ }4 indicated HeLa transfectants were washed with staining buffer and CP08H03/Vκ8 S29A (labeled “CP08”, left) or CEACAM1 antibody CM-24 was incubated at room temperature for 30 min, washed twice with staining buffer, and stained for anti-human IgG4 Fluorescein isothiocyanate (FITC) conjugated secondary antibody at room temperature for 20 min. Fluorescence intensities were determined by flow cytometry. Live cells were determined by 4′,6-diamidino-2-phenylindole (DAPI) staining as shown on the y-axis. Staining with the respective CEACAM1 antibody is shown on the x-axis. […]
The cervical adenocarcinoma cell line HeLa (ATCC No CCL-2) as well as transfected cell lines HeLaCEACAM1, HeLaCEACAM3, HeLaCEACAM5, HeLaCEACAM6 and HeLaCEACAM8 used for flow cytometry experiments were cultured at 37° C., 5.0% CO₂ in Dulbecco's modified Eagle's medium supplemented with 10% fetal bovine serum, penicillin (100 U/ml) and dihydrostreptomycin (100 μg/ml). […] Data were acquired with a Cytoflex flow cytometer (Invitrogen) and analyzed with FlowJo software (TreeStar, V7.6.5 for Windows).

His-tagged CEACAM1 [2] = target: T2, His-tagged CEACAM1; test: SPR multi-cycle
Outline: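 On a Series S Protein A chip in a Biacore T200, purified antibody at 1 μg/ml was captured to ~75 RU, and His-tagged CEACAM1 analyte flowed at 80 μl/min in 2-fold dilutions (200 to 3.125 nM or 100 to 1.5625 nM) in HBS-P+ (pH 7.4) at 25° C. Association lasted 50 or 150 seconds and dissociation 100 seconds. The resulting multi-cycle kinetic sensorgrams yielded Kon, koff, Kd and relative KD.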

His-tagged CEACAM1 [3] = target: T2, His-tagged CEACAM1; test: SPR single-cycle, IgG captured
Outline: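 Biacore T200 single-cycle kinetics at 25° C in HBS-P+ (pH 7.4): antibodies (purified or HEK EBNA supernatant, 1 μg/ml) captured on Protein A to ~75 RU, His-tagged CEACAM1 analyte at 3.125–50 nM (5-point 2-fold) at 50 μl/min without regeneration. Reference channel Fc1 subtracted.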

Binder | binding result [1] | Kd (His-tagged CEACAM1 [2]) [nM] | koff (His-tagged CEACAM1 [2]) [s⁻¹] | kon (His-tagged CEACAM1 [2]) [M⁻¹ s⁻¹] | relative KD (His-tagged CEACAM1 [2]) | Kd (His-tagged CEACAM1 [3]) [nM] | relative KD to VH0/Vκ0 (His-tagged CEACAM1 [3])
B1 | no binding (tested: 100 ug/ml) |  |  |  |  |  | 
B2 |  | 105 | 0.0258 | 246000 | 1 | 42 | 1
